Laboratory results: IntAct's records for PubMed 19197237

Target: pex14_human PEX14 (UniProt O75381)
Sequence of UniProt O75381 (O75381 whole entry): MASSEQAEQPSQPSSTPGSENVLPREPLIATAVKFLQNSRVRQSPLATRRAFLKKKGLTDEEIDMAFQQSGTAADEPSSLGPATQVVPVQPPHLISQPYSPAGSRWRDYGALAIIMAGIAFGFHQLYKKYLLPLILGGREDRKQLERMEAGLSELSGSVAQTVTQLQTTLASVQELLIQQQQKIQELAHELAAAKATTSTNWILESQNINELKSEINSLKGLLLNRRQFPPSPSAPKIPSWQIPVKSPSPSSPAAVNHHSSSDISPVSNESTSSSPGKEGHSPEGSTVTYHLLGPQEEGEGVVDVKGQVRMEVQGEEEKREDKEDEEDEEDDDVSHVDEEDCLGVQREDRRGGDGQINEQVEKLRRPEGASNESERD

effect of a mutation on the interaction: disrupting interaction
Substance: Peroxisomal targeting signal 1 receptor (Homo sapiens) (from UniProt P50542) E121D
